Results from the supplement of paper PMC10724198.
± gives the standard deviation of the averaged measurements.

Experiments:
Saccharomyces cerevisiae [1] = experiment: protein stability index of tFT-peptide fusion (C-terminal peptide) (PSI (0-1 scale)); higher = more stable (slower turnover); conditions: genetic background: wild type; temperature: 30 C
Saccharomyces cerevisiae [2] = experiment: as above
Description: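 MPS profiling in S. cerevisiae of the tFT-X12 degron library: putative degron peptides plus stable controls, 12 aa, fused to the C-terminus of a sfGFP-mCherry timer. Cells are FACS-sorted into 8 mCherry/sfGFP bins and deep-sequenced. PSI runs from 0 (unstable) to 1 (stable). Backgrounds are wild type, das1Δ and doa10Δ at 30 °C, and wild type, das1Δ, cdc34-1 and cdc53-1 at 37 °C; 2-3 technical replicates each.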

[3] = genetic background: cdc34-1, temperature: 37 C
[4] = genetic background: cdc53-1, temperature: 37 C
[5] = genetic background: das1 deletion, temperature: 30 C
[6] = genetic background: das1 deletion, temperature: 37 C
[7] = genetic background: doa10 deletion, temperature: 30 C
[8] = genetic background: wild type, temperature: 30 C
[9] = genetic background: wild type, temperature: 37 C
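Note: PSI is a weighted mean of sequencing reads over stability bins, variants kept only with over 10 reads, mCherry proximal and sfGFP distal, peptide attached via GGGS linker.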

Row | Sequence | protein stability index (Saccharomyces cerevisiae [1]) | protein stability index (Saccharomyces cerevisiae [2]; [3]) | protein stability index (Saccharomyces cerevisiae [2]; [4]) | protein stability index (Saccharomyces cerevisiae [2]; [5]) | protein stability index (Saccharomyces cerevisiae [2]; [6]) | protein stability index (Saccharomyces cerevisiae [2]; [7]) | protein stability index (Saccharomyces cerevisiae [2]; [8]) | protein stability index (Saccharomyces cerevisiae [2]; [9])
1 | GYRRCCHFLFTL | 0.423 ± 0.034 | 0.671 ± 0.02 | 0.735 ± 0.035 | 0.622 ± 0.023 | 0.747 ± 0.00099 | 0.359 ± 0.023 | 0.375 ± 0.029 | 0.56 ± 0.0064
2 | HHRLRQGLRRIN | 0.462 ± 0.014 | 0.64 ± 0.039 | 0.7278 ± 0.0055 | 0.638 ± 0.0082 | 0.7023 ± 0.003 | 0.251 ± 0.0034 | 0.293 ± 0.0082 | 0.5161 ± 0.0011
3 | HPPPTLVPPHPR | 0.616 ± 0.19 | 0.64 ± 0.032 | 0.709 ± 0.031 | 0.674 ± 0.011 | 0.727 ± 0.0074 | 0.7045 ± 0.0028 | 0.681 ± 0.019 | 0.6803 ± 0.0027
4 | HRLQFKGYPICA | 0.33 ± 0.0051 | 0.243 ± 0.039 | 0.255 ± 0.067 | 0.235 ± 0.048 | 0.371 ± 0.015 | 0.18 ± 0.0058 | 0.223 ± 0.025 | 0.338 ± 0.0061
5 | HRPRPLLKLLAS | 0.145 ± 0.011 | – | 0.596 ± 0.098 | 0.585 ± 0.083 | 0.67983 ± 0.0006 | 0.0522 ± 0.045 | 0.0779 ± 0.044 | 0.0284 ± 0.018
6 | HSRRRRPTPQSL | 0.571 ± 0.12 | 0.609 ± 0.047 | 0.65 ± 0.016 | 0.651 ± 0.036 | 0.636 ± 0.011 | 0.662 ± 0.014 | 0.64 ± 0.019 | 0.61 ± 0.016
7 | HVCKLAMFQWYF | 0.371 ± 0.018 | 0.6 ± 0.011 | 0.713 ± 0.031 | 0.609 ± 0.012 | 0.72211 ± 0.00042 | 0.2873 ± 0.0019 | 0.302 ± 0.02 | 0.533 ± 0.029
8 | ICIFWLITGLWL | 0.3884 ± 0.00079 | 0.465 ± 0.074 | 0.459 ± 0.026 | 0.336 ± 0.03 | 0.487 ± 0.019 | 0.304 ± 0.014 | 0.324 ± 0.013 | 0.4633 ± 0.0029
9 | IFLCRNGAVFIC | 0.158 ± 0.015 | 0.398 ± 0.07 | 0.7987 ± 0.0065 | 0.733 ± 0.016 | 0.872 ± 0.019 | 0.0808 ± 0.021 | 0.0798 ± 0.016 | 0.0995 ± 0.012
10 | IFRVTGFPIYIF | 0.297 ± 0.012 | 0.327 ± 0.045 | 0.36 ± 0.024 | 0.339 ± 0.021 | 0.4535 ± 0.0037 | 0.222 ± 0.014 | 0.233 ± 0.025 | 0.3522 ± 0.0011
11 | IGFSPSFQLYSA | 0.721 ± 0.0083 | 0.726 ± 0.0078 | 0.756 ± 0.012 | 0.666 ± 0.0083 | 0.77318 ± 9.2e-05 | 0.6445 ± 0.0049 | 0.67 ± 0.016 | 0.747 ± 0.012
12 | IGILVTAVPVFD | 0.451 ± 0.012 | 0.507 ± 0.057 | 0.518 ± 0.0058 | 0.386 ± 0.042 | 0.5522 ± 0.0021 | 0.343 ± 0.013 | 0.382 ± 0.021 | 0.529 ± 0.011
13 | IIAGVWFLEILG | 0.479 ± 0.015 | 0.4134 ± 0.0039 | 0.525 ± 0.009 | 0.333 ± 0.027 | 0.527 ± 0.012 | 0.308 ± 0.012 | 0.312 ± 0.022 | 0.497 ± 0.023
14 | IIGCIAICLMVN | 0.0843 ± 0.012 | 0.0164 ± 0.0065 | 0.214 ± 0.25 | 0.0942 ± 0.042 | 0.0938 ± 0.019 | 0.0381 ± 0.015 | 0.0451 ± 0.016 | 0.0405 ± 0.027
15 | IKCVPLVWRLTV | 0.272 ± 0.031 | 0.457 ± 0.0073 | 0.594 ± 0.045 | 0.534 ± 0.038 | 0.6384 ± 0.0023 | 0.109 ± 0.022 | 0.123 ± 0.02 | 0.1955 ± 0.001
16 | IKIQPKKRISLI | 0.299 ± 0.0067 | 0.658 ± 0.056 | 0.707 ± 0.058 | 0.632 ± 0.039 | 0.702 ± 0.017 | 0.155 ± 0.0043 | 0.174 ± 0.043 | 0.391 ± 0.031
17 | ILAVMFEIYAIL | 0.3593 ± 0.0012 | 0.422 ± 0.013 | 0.5124 ± 0.0015 | 0.349 ± 0.042 | 0.533 ± 0.0094 | 0.185 ± 0.018 | 0.228 ± 0.029 | 0.42 ± 0.023
18 | ILCYVWLVFSGF | 0.373 ± 0.022 | 0.225 ± 0.0092 | 0.311 ± 0.019 | 0.223 ± 0.029 | 0.382 ± 0.01 | 0.194 ± 0.0036 | 0.204 ± 0.032 | 0.369 ± 0.025
19 | INHVIHAKLRFS | 0.237 ± 0.066 | 0.629 ± 0.015 | 0.675 ± 0.082 | 0.643 ± 0.011 | 0.72 ± 0.03 | 0.11 ± 0.026 | 0.13 ± 0.03 | 0.249 ± 0.075
20 | ISSAGHNIRFLA | 0.23 ± 0.052 | 0.599 ± 0.052 | 0.698 ± 0.022 | 0.658 ± 0.025 | 0.715 ± 0.008 | 0.107 ± 0.025 | 0.129 ± 0.034 | 0.21 ± 0.018
